Article PMC5951847, “Substrate sequence selectivity of APOBEC3A implicates intra-DNA interactions”

Assays:
[1] = target: T1, A3A(E72A) (Homo sapiens, UniProt P31941 1-199, E72A); experiment: fluorescence anisotropy; pH 6.0; 50 mM MES pH 6.0, 100 mM NaCl, 0.5 mM TCEP, room temperature overnight, 10 nM TAMRA-oligo; competition with 300 nM A3A(E72A); pH series: acetate 4.0-5.0, MES 5.5-6.5, HEPES 7.0-8.0, Tris 8.5-9.0; details: protein: recombinant, tags: His6-SUMO removed by Ulp1 (untagged)
[2] = target: T1, A3A(E72A); experiment: competition; vs TAMRA-3A-TTCA-6A; 50 mM MES pH 6.0, 100 mM NaCl, 0.5 mM TCEP, room temperature overnight, 10 nM TAMRA-oligo; competition with 300 nM A3A(E72A); pH series: acetate 4.0-5.0, MES 5.5-6.5, HEPES 7.0-8.0, Tris 8.5-9.0; details: protein: recombinant; tags: His6-SUMO removed by Ulp1 (untagged); label: unlabeled

T1 sequence (P31941 whole entry E72A): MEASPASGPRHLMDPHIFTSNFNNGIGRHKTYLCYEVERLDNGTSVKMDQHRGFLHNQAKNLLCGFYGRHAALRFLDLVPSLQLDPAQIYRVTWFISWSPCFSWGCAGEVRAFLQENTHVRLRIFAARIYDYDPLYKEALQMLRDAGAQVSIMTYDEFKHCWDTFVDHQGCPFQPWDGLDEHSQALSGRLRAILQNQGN

| Binder | Kd ([1]; label: 5' TAMRA) [nM] | further results |
| --- | --- | --- |
| CCCCCCCCCCCC (ssDNA) [Poly C (12 C)] | 1570 ± 117 | – |
| ATTCA (ssDNA) [1A-TTCA] | – | binding result [2]: no binding |
| GCCAUCUAUCGAUGGG (structured_RNA) [SDHB hairpin RNA (UC in loop)] | – | Kd ([1]; label: TAMRA (5'), hairpin): 37 nM |
| AAAACCAAAAAA (ssDNA) [Poly A-CC (4A-CC-6A)] | 250 ± 14 | – |
| AAATTCAAAAAA (ssDNA) [Poly A-TTCA (3A-TTCA-5A)] | 90 ± 1 | – |
| AAAATCTAAAAA (ssDNA) [Poly A-ATCT (3A-ATCT-5A)] | 209 ± 5 | – |
| AAACTCAAAAAA (ssDNA) [Poly A-CTCA (3A-CTCA-5A)] | 85 ± 1 | – |
| AAAATCAAAAAA (ssDNA) [Poly A-ATCA (3A-ATCA-5A)] | 145 ± 2 | – |
| AAAGTCAAAAAA (ssDNA) [Poly A-GTCA (3A-GTCA-5A)] | 150 ± 3 | – |
| AAACTCCAAAAA (ssDNA) [Poly A-CTCC (3A-CTCC-5A)] | 101 ± 2 | – |
| AAAGTCGAAAAA (ssDNA) [Poly A-GTCG (3A-GTCG-5A)] | 150 ± 3 | – |
| AAATTCTAAAAA (ssDNA) [Poly A-TTCT (3A-TTCT-5A)] | 127 ± 2 | – |
| AAAGTCTAAAAA (ssDNA) [Poly A-GTCT (3A-GTCT-5A)] | 218 ± 7 | – |
| AAAATCCAAAAA (ssDNA) [Poly A-ATCC (3A-ATCC-5A)] | 163 ± 3 | – |
| GCCAUCUAAAGAUGGG (structured_RNA) [SDHB hairpin RNA, loop UC to AA] | – | Kd ([1]; label: TAMRA (5'), hairpin): 202 nM |
| TTTTTCTTTTTT (ssDNA) [Poly T-C (5T-C-6T)] | 35 ± 2 | – |
| AAAATCGAAAAA (ssDNA) [Poly A-ATCG (3A-ATCG-5A)] | 154 ± 2 | – |
| AAAGTCCAAAAA (ssDNA) [Poly A-GTCC (3A-GTCC-5A)] | 152 ± 2 | – |
| AAAATCAAAAAA (ssDNA) [Poly A-TC (4A-TC-6A)] | 143 ± 4 | – |
| AAATTCCAAAAA (ssDNA) [Poly A-TTCC (3A-TTCC-5A)] | 114 ± 2 | – |
| AAACTCTAAAAA (ssDNA) [Poly A-CTCT (3A-CTCT-5A)] | 122 ± 2 | – |
| TTTTTTTTTTTT (ssDNA) [Poly T (12 T)] | 748 ± 44 | – |
| TTCAA (ssDNA) [TTCA-1A] | – | binding result [2]: no binding |
